Source: article doi:10.1101/2023.04.28.538712 (bioRxiv, 2023)

How the values were obtained:
[1] = molecular target: T1, β2-microglobulin, biotinylated (Homo sapiens, UniProt P61769); assay: BLI; Octet-BLI K2; SA sensors loaded with 50 nM biotinylated β2-microglobulin; Nb24 variants in solution (25-400 nM in Fig. 5C); PBS + 0.05% Tween-20, 30°C, 1000 rpm; global fit, 1:1 partial dissociation binding model; KD mean of 3 independent experiments; conditions: both partners purified
T1 construct: β2-microglobulin, human; Surmise: such E. coli constructs are usually the mature protein with an added first methionine; also called human β2-microglobulin; recombinant β2-microglobulin

[2] = molecular target: T2, SARS-CoV-2 Spike receptor-binding domain (RBD), biotinylated (SARS-CoV-2, strain ; …, UniProt P0DTC2); assay: BLI; conditions: both partners purified
T2 construct: also called SARS-CoV-2 RBD; SarS-CoV-2 RBD

T1 sequence (P61769 21-119): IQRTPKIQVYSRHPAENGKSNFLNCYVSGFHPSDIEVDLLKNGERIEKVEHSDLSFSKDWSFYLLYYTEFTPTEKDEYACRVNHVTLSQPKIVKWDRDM

B1: Nb24 WT nanobody (VHH)
VHH: QVQLQESGGGSVQAGGSLRLSCAASGYTDSRYCMAWFRQAPGKEREWVARINSGRDITYYADSVKGRFTFSQDNAKNTVYLQMDSLEPEDTATYYCATDIPLRCRDIVAKGGDGFRYWGQGTQVTVSS
notes: source: E. coli Shuffle LysY, secreted to the medium, purified (His Mag Sepharose Excel beads, SEC Superdex 75)
Kd [1]: 79 nM

B2: Nb24 humanised variant, AbNatiV Exhaustive sampling (VHH)
VHH: EVQLVESGGGLVQPGGSLRLSCAASGYTDSRYCMAWFRQAPGKGLEWVARINSGRDITYYADSVKGRFTFSRDNAKNTVYLQMDSLRPEDTAVYYCATDIPLRCRDIVAKGGDGFRYWGQGTQVTVSS
notes: Parent: Nb24 WT; also called Nb24 Exhaustive; source: E. coli Shuffle LysY, secreted to the medium, purified (His Mag Sepharose Excel beads, SEC Superdex 75)
Kd [1]: 75 nM

B3: Nb24 humanised variant, AbNatiV Enhanced sampling (+buried) (VHH)
VHH: EVQLLESGGGLVQPGGSLRLSCAASGYTDSRYCMAWFRQAPGKEREWVARINSGRDITYYADSVKGRFTVSRDNSKNTVYLQMDSLRPEDTAVYYCATDIPLRCRDIVAKGGDGFRYWGQGTQVTVSS
notes: Parent: Nb24 WT; source: E. coli Shuffle LysY, secreted to the medium, purified (His Mag Sepharose Excel beads, SEC Superdex 75)
binding result [1]: binds

B4: Nb24 humanised variant, AbNatiV Enhanced sampling (VHH)
VHH: EVQLLESGGGLVQPGGSLRLSCAASGYTDSRYCMAWFRQAPGKEREWVARINSGRDITYYADSVKGRFTFSRDNSKNTVYLQMDSLRPEDTAVYYCATDIPLRCRDIVAKGGDGFRYWGQGTQVTVSS
notes: Parent: Nb24 WT; also called Nb24 Enhanced; source: E. coli Shuffle LysY, secreted to the medium, purified (His Mag Sepharose Excel beads, SEC Superdex 75)
Kd [1]: 68 nM

B5: Nb24 humanised variant, AbNatiV Exhaustive sampling (+buried) (VHH)
VHH: EVQLVESGGGLVQPGGSLRLSCAASGYTDSRYCMAWFRQAPGKGLEWVARINSGRDITYYADSVKGRFTISRDNAKNTVYLQMDSLKPEDTAVYYCATDIPLRCRDIVAKGGDGFRYWGQGTLVTVSS
notes: Parent: Nb24 WT; also called Exhausted +buried; source: E. coli Shuffle LysY, secreted to the medium, purified (His Mag Sepharose Excel beads, SEC Superdex 75)
binding result [1]: binds

B6: Nb24 humanised variant, Frequency and Structure-based humanisation (Llamanade) (VHH)
VHH: QVQLVESGGGLVQPGGSLRLSCAASGYTDSRYCMAWFRQAPGKGLEWVARINSGRDITYYADSVKGRFTISRDNAKNTLYLQMNSLRAEDTAVYYCARDIPLRCRDIVAKGGDGFRYWGQGTLVTVSS
notes: Parent: Nb24 WT; also called Frequency & structure-based; Frequency and Structure-based humanised variant; source: E. coli Shuffle LysY, secreted to the medium, purified (His Mag Sepharose Excel beads, SEC Superdex 75)
binding result [1]: binds

B7: mNb6 humanised variant, AbNatiV Enhanced sampling (+buried) (VHH)
VHH: EVQLVESGGGLVQPGGSLRLSCAASGYIFGRNAMGWVRQAPGKGREWVSGITRRGSITYYADSVKGRFTISRDNAKNTVYLQMNSLRPEDTAVYYCAADPASPAYGDYWGQGTQVTVSS
notes: Parent: mNb6 WT
binding result [2]: binds

B8: mNb6 humanised variant, AbNatiV Exhaustive sampling (+buried) (VHH)
VHH: EVQLVESGGGLVQPGGSLRLSCAASGYIFGRNAMGWVRQAPGKGLEWVAGITRRGSITYYADSVKGRFTISRDNAKNTVYLQMDSLRPEDTAVYYCAADPASPAYGDYWGQGTLVTVSS
notes: Parent: mNb6 WT; also called mNb6 Exhausted Sampling + buried; Exhausted +buried
binding result [2]: binds

B9: mNb6 humanised variant, Frequency and Structure-based humanisation (Llamanade) (VHH)
VHH: QVQLVESGGGLVQPGGSLRLSCAASGYIFGRNAMGWVRQAPGKGLEWVAGITRRGSITYYADSVKGRFTISRDNAKNTLYLQMNSLRAEDTAVYYCARDPASPAYGDYWGQGTLVTVSS
notes: Parent: mNb6 WT; also called Frequency & structure-based; Frequency and Structure-based variant
binding result [2]: no binding (tested: 500 nM)

B10: mNb6 humanised variant, AbNatiV Exhaustive sampling (VHH)
VHH: EVQLVESGGGLVQPGGSLRLSCAASGYIFGRNAMGWYRQAPGKGLEWVAGITRRGSITYYADSVKGRFTISRDNAKNTVFLQMDSLRPEDTAVYYCAADPASPAYGDYWGQGTLVTVSS
notes: Parent: mNb6 WT; also called mNb6 Exhaustive
Kd [2]: 15 nM

B11: mNb6 humanised variant, AbNatiV Enhanced sampling (VHH)
VHH: EVQLVESGGGLVQPGGSLRLSCAASGYIFGRNAMGWYRQAPGKERELVAGITRRGSITYYADSVKGRFTISRDNAKNTVFLQMNSLRPEDTAVYYCAADPASPAYGDYWGQGTQVTVSS
notes: Parent: mNb6 WT; also called mNb6 Enhanced
Kd [2]: 0.86 nM
